16 molecules from patent US6617114B1, “Identification of drug complementary combinatorial libraries” (priority 1996, dated 2003) can be followed below.

The target in one experiment is estrogen receptor α (ER) (Homo sapiens, UniProt P03372). Briefly: Phage ELISA competition on immobilized estrogen receptor.
Experiment [1] concerns the target T1, GST portion of the GSTUL44 fusion (Schistosoma japonicum, UniProt P08515).
T1 construct: made in house; host or cells: E. coli DH5aF′
Put plainly: Phage ELISA competition on immobilized GSTUL44, GST-specific phage. In kind it is binding. The settings on record: various concentrations of competitor. How it is done: (§1) To map the. binding site for the UL44 specific phage displaying the constrained peptide from the X10C library, we competed this phage for binding with linear double stranded DNA. To show the specificity of binding for the substrates and the phage, both phage were competed with both substrates. Microtiter plates were coated with GSTUL44 protein and blocked as described above. Phage specific for either the GST portion or the UL44 portion of the fusion were then added to separate wells and at the same time various concentrations of either GSH or DNA were added. It is important to keep in mind that these phage were isolated from the same affinity selection run.
Background: An ELISA detects its analyte on a solid surface through an enzyme-linked reagent.

The target in the next experiment is T2, UL44 (Human cytomegalovirus, UniProt P16790).
T2 construct: made in house; host or cells: E. coli DH5aF′
T2 sequence (P16790 whole entry): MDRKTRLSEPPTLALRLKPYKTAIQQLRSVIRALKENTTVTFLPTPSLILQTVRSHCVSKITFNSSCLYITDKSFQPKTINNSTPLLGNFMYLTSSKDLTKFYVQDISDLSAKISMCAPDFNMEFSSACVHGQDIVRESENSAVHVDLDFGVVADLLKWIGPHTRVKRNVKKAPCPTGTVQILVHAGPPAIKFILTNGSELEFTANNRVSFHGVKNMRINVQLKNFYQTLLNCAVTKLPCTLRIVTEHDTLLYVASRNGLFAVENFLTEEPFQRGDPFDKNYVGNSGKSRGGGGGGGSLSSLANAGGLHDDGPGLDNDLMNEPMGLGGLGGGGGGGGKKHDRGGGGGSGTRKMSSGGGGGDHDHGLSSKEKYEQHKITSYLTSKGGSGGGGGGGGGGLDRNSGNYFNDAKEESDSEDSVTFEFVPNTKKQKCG
Put plainly: Phage ELISA competition on immobilized GSTUL44, UL44-specific phage. In kind it is binding. The note with it: various concentrations of competitor. How it is done: as §1

Experiment [2] addresses T3, Agrobacterium faecalis beta-glucosidase (Agrobacterium sp., UniProt P12614).
T3 sequence (P12614 1-459): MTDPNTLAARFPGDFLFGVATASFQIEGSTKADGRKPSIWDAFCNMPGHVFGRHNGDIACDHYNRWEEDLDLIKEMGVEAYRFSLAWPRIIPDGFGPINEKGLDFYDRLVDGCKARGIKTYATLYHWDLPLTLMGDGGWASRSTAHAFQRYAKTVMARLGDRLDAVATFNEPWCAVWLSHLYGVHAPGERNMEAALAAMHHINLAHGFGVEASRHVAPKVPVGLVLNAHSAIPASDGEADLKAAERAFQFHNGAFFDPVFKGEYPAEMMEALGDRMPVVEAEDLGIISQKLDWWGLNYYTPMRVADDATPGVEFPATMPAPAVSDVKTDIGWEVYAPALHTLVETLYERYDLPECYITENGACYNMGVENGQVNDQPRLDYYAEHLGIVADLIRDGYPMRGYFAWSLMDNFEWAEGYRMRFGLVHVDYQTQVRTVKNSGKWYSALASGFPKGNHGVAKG
Briefly: Phage ELISA competition with conduritol on beta-glucosidase. It is filed as binding. The note with it: 3 mM conduritol for 3 hours. How it is done: For the first method of affinity purification, phage libraries were mixed with 1 μg biotinylated target protein in solution and allowed to incubate at room temperature for 4 hours. Phage:protein complexes were then captured on streptavidin paramagnetic beads (Promega, cat#Z5482) by adding beads and incubating the tubes while rotating at room temperature for 30 minutes. The complexes were then drawn to the sides of the tubes using a magnet and the beads were washed with TBST containing 5 mM biotin. Beads were washed once in the first round of panning and 3 times for each additional round. Phage were eluted and amplified using the sequential procedure described in example 3. In the second method of affinity purification, phage libraries were mixed with 1 μg biotinylated target protein that was first captured on streptavidin paramagnetic beads. After the protein was bound, the beads were washed once with TBST containing 5 mM biotin to block the remaining binding sites on streptavidin. The libraries and beads were then mixed at room temperature on a rotator for 4 hours and washed, eluted and amplified as above. Phage ELISAs were carried out by first coating a microtiter plate (Immulon4, Dynex) with 1 μg streptavidin, followed by blocking with BSA. Biotinylated protein was then added to the wells and allowed to bind to the streptavidin for 1 hour. […]

The target of another experiment is T4, GST-UL44 (Human cytomegalovirus, UniProt P16790).
T4 construct: made in house; host or cells: E. coli DH5aF′
T4 sequence (P16790 whole entry): as the sequence (P16790 whole entry) above
Put plainly: Enzyme Linked Spectrophotometric Assay (ELSA) for CMV UL44. In kind it is binding. How it is done: IMMULON-4 (cat.#011-010-3855) 96-well microtitration test plates were purchased from Dynatech. Bovine serum, albumin (BSA) (A2153), Streptavidin alkaline phosphatase (SA-AP) (S2890), TWEEN-20 detergent (P1379), and p-nitrophenyl phosphate tablets (pNPP) (N-1891, N-2770) were purchased from Sigma. Phosphate buffered saline (PBS) (21600-010) was obtained from Gibco-BRL. Ultrapure glycerol (#16374) was purchased from USB. Biotinylated surrogate ligands were prepared as a 1 mM stock solution in the appropriate solvent (H2O or 10% acetonitrile). SA-AP was prepared as a 1 mg/ml stock solution in PBS containing 10% glycerol and stored in aliquots at −80° C.
Target protein was immobilized in microtiter wells by incubating 0.5-2.0 μg per well in 100 μl of 0.1 M NaHCO3 overnight at 4° C. […] During the 1 hour blocking period, the SA-AP:surrogate ligand conjugate was prepared by mixing 2 μg SA-AP and 50 pmol biotinylated surrogate ligand for each well of target protein. (This corresponds to a 1:1 ratio of biotinylated peptide to biotin binding sites.) The mixture was incubated at room temperature for 15-20 minutes and then diluted with Tris-buffered saline-TWEEN-20 detergent (TBST) 10 mM Tris-HCl, pH 8.0, 150 mM NaCl, 0.05% TWEEN-20 detergent such that there was 100 μl of conjugate per well. […]
After blocking, the wells were washed once with 200 μl TBST. […] The absorbance was read at 405 nm.

The target in experiment [3] is T5, carboxypeptidase B from pig pancreas (pig), P09955.
T5 chain: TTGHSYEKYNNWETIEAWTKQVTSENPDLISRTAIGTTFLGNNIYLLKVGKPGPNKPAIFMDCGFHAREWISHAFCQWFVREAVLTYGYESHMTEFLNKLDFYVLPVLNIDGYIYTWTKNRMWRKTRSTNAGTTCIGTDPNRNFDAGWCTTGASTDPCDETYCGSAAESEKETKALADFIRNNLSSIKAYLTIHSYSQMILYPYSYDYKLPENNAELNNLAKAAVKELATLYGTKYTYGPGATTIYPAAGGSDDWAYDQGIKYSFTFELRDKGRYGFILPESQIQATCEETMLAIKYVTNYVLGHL
Briefly: cross reactivity phage ELISA.

In experiment [4] the target is T6, Yeast alcohol dehydrogenase (yeast), P00330.
T6 chain: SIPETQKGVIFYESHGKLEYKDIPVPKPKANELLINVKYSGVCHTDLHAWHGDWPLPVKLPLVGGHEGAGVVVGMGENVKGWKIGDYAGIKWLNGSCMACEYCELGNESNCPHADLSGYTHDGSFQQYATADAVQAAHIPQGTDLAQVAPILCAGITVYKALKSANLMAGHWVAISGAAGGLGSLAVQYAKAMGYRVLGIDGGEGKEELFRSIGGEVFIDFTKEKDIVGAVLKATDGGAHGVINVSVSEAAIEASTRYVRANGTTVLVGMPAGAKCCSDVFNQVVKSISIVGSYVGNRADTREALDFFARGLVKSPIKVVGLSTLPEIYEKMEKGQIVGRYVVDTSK
Put plainly: cross reactivity phage ELISA.

The target in experiment [5] is T7, E. coli proline tRNA synthetase (E. coli), P16659.
T7 chain: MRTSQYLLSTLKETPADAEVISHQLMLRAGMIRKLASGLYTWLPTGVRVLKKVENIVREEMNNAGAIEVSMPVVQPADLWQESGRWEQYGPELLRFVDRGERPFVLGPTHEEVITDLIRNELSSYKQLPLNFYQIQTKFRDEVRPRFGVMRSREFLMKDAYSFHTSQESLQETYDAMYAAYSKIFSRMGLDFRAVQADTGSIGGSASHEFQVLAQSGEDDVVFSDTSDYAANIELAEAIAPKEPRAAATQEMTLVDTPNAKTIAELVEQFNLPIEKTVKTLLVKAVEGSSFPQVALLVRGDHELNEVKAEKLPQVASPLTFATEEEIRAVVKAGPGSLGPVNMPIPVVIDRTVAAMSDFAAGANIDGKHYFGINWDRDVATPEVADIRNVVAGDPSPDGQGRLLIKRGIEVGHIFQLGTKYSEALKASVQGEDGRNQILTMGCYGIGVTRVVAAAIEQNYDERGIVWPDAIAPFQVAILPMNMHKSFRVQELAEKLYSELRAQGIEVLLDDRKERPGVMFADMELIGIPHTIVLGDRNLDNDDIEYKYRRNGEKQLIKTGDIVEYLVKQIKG
Briefly: cell-based or functional assay.

Experiment [6] deals with T7, E. coli proline tRNA synthetase (E. …). Briefly: tRNA charging (enzyme activity) assay, competitive in respect to proline.

Usually Ki stands for the equilibrium dissociation constant of an inhibitor or competing ligand from its target. Lower therefore signals higher affinity.

Where no end group is shown, it is not given here.

Chain of estrogen receptor α (ER) (P03372 whole entry, the tested form may be a part): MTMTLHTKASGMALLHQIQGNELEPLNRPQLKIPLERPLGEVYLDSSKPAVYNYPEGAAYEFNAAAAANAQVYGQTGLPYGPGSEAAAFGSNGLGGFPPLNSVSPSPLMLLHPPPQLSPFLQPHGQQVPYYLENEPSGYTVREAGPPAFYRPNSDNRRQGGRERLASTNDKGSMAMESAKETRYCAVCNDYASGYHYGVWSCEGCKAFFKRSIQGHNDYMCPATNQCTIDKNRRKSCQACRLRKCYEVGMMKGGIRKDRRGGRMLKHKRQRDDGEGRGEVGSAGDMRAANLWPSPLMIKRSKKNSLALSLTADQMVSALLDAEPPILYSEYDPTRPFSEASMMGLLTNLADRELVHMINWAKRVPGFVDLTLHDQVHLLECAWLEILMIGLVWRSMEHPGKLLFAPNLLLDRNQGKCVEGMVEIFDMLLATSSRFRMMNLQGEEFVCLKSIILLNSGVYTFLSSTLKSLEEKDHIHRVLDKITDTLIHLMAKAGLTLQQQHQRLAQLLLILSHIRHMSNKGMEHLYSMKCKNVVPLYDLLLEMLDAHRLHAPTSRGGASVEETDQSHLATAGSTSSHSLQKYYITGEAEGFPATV
T1 sequence (P08515 whole entry, the tested form may be a part): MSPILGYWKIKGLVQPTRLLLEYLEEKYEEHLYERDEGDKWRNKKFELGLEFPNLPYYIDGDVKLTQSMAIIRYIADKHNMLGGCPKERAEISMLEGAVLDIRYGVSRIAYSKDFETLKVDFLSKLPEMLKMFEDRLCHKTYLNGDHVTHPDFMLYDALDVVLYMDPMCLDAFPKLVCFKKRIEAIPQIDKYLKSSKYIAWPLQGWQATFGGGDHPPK

As to 4-hydroxytamoxifen [reference compound], the “competition with ER binding phage selected in the absence of estradiol” value at estrogen receptor α (ER) is “does not inhibit”.
Take `N[C@@H](CCC(=O)N[C@@H](CS)C(=O)NCC(=O)O)C(=O)O` [GSH, glutathione]: the “binding of GST specific phage to GSTUL44 in presence of competitor” value in [1] was “competed in a dose dependent fashion”. The “binding of UL44 specific phage (X10C peptide) to GSTUL44 in presence of competitor” value on UL44 is recorded as “no effect”.
For `O[C@@H]1[C@H](O)[C@@H](O)C=C[C@H]1O` [conduritol], in experiment [2], the “binding of phage from group 1 after conduritol” value is recorded as “unaffected” and the “binding of phage from group 2 after conduritol” value is given as “inhibited”.
For the molecule “Biotin-H-Ser-Gly-Ser-Gly-Glu-His-Val-Cys-Ser-Trp-Gly-Trp-Gly-Arg-Cys-OH [UL44 BioKey]”, the “specificity of binding of biotinylated peptide” value on GST-UL44 (tested on streptavidin, GST-UL44, GST, GST-SrcSH3) is “binds specifically to UL44”.
For the molecule “H-Ser-Gly-Ser-Gly-Glu-His-Val-Cys-Ser-Trp-Gly-Trp-Gly-Arg-Cys-OH (H-SGSGEHVCSWGWGRC-OH; cysteine pairing not given here) [non-biotinylated UL44 peptide]”, the “competition of biotinylated UL44 peptide binding” value with GST-UL44 (self-competition) was “competed specifically”.
As for “W L D G L P L Y H E V (WLDGLPLYHEV) [Peptide 5]”, the “effect of antiestrogens on phage binding to ER” value with estrogen receptor α (ER) (phage selected with estradiol, 100 μM tamoxifen, nafoxidine, clomiphene) is “S S L T S R D F G S W Y A S R * (SEQ ID NO:156)”.
In experiment [3], SSWGDYFNWRDGLSR (modifications not checked) came in with a fold ELISA signal on the specific target vs any other target tested of over 10 fold.
For the molecule SSWQGNVLLGNWISR (modifications not checked), in [4], the fold ELISA signal on the specific target vs any other target tested was over 10 fold.
In the case of SSLLNESRLQWSTSR (modifications not checked), the fold ELISA signal on the specific target vs any other target tested in experiment [4] was over 10 fold.
Still for that read-out and setting: to SSSFKPWPIYLGSSR (modifications not checked) belongs over 10 fold.
As to SRVCAIWPDLDGCSR (not fully specified; cysteine pairing not given here) [non-biotinylated ProRS peptide], the charging assay (enzymatic activity of the target) in experiment [5] came to 50 % inhibition. In addition, in experiment [6], the Ki was over 500 µM.
With SVSVGMKPSPRP (modifications not checked), the fold ELISA signal on the specific target vs any other target tested in [4] was over 10 fold.
In the case of SSFRELKPGWWSYSR (modifications not checked), the fold ELISA signal on the specific target vs any other target tested in [3] is over 10 fold.
For the molecule SRQVEVFKPWPVYSR (modifications not checked), the fold ELISA signal on the specific target vs any other target tested in experiment [4] was over 10 fold.
SRLLEVSPGWWQMSR (modifications not checked) showed a fold ELISA signal on the specific target vs any other target tested in [3] of over 10 fold.
With SSNYWWQSPVLSRHSR (modifications not checked), in experiment [4], the fold ELISA signal on the specific target vs any other target tested was over 10 fold.
